These results are taken from patent US20260098059A1 (ENDOMET BIOSCIENCES, published 2026).

Sequences and labels used below:
T1: β-catenin (UniProt P35222 134-665, limits assumed, biotinylated in the SPR and plate assays)
T1 sequence (looked up): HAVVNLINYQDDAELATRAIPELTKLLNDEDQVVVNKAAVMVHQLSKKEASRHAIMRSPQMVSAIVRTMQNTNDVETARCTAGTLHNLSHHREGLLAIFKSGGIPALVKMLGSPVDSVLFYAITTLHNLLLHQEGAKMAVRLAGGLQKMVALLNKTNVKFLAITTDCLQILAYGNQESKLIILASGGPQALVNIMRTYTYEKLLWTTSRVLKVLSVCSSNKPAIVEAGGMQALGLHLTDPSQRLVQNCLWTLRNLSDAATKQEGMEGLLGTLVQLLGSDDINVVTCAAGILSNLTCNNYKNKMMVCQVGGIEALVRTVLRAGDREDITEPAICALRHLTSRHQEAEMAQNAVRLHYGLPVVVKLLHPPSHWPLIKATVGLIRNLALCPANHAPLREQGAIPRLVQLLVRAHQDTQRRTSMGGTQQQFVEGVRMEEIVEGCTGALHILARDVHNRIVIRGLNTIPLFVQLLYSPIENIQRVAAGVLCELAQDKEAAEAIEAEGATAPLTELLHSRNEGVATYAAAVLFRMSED

B1: SEQ ID NO: 404 (peptide)
peptide: WAQKILDEHGQRVWG
HELM: PEPTIDE1{[ac].W.[meA].Q.K.I.L.D.E.H.[O=C([C@@H](N[*:1])C1CCCCC1)[*:2]].Q.R.V.W.G.[am]}$PEPTIDE1,PEPTIDE1,5:R3-9:R3$$$V2.0
SMILES: CC[C@H](C)[C@@H]1NC(=O)[C@@H](NC(=O)[C@H](CCC(N)=O)NC(=O)[C@H](C)N(C)C(=O)[C@H](Cc2c[nH]c3ccccc23)NC(C)=O)CCCCNC(=O)CC[C@@H](C(=O)N[C@@H](Cc2c[nH]cn2)C(=O)N[C@H](C(=O)N[C@@H](CCC(N)=O)C(=O)N[C@@H](CCCNC(=N)N)C(=O)N[C@H](C(=O)N[C@@H](Cc2c[nH]c3ccccc23)C(=O)NCC(N)=O)C(C)C)C2CCCCC2)NC(=O)[C@H](CC(=O)O)NC(=O)[C@H](CC(C)C)NC1=O
B2: SEQ ID NO: 401 (peptide)
peptide: WAQKILDEHVQRVWG
HELM: PEPTIDE1{W.[meA].Q.K.I.L.D.E.H.V.Q.R.V.W.G.[am]}$PEPTIDE1,PEPTIDE1,4:R3-8:R3$$$V2.0
SMILES: CC[C@H](C)[C@@H]1NC(=O)[C@@H](NC(=O)[C@H](CCC(N)=O)NC(=O)[C@H](C)N(C)C(=O)[C@@H](N)Cc2c[nH]c3ccccc23)CCCCNC(=O)CC[C@@H](C(=O)N[C@@H](Cc2c[nH]cn2)C(=O)N[C@H](C(=O)N[C@@H](CCC(N)=O)C(=O)N[C@@H](CCCNC(=N)N)C(=O)N[C@H](C(=O)N[C@@H](Cc2c[nH]c3ccccc23)C(=O)NCC(N)=O)C(C)C)C(C)C)NC(=O)[C@H](CC(=O)O)NC(=O)[C@H](CC(C)C)NC1=O
B3: SEQ ID NO: 430 (peptide)
peptide: WAQKILDDHGQRVWG
HELM: PEPTIDE1{[ac].W.[meA].Q.K.I.L.D.D.H.[O=C([C@@H](N[*:1])C1CCCCC1)[*:2]].Q.R.V.W.G.[am]}$PEPTIDE1,PEPTIDE1,5:R3-9:R3$$$V2.0
SMILES: CC[C@H](C)[C@@H]1NC(=O)[C@@H](NC(=O)[C@H](CCC(N)=O)NC(=O)[C@H](C)N(C)C(=O)[C@H](Cc2c[nH]c3ccccc23)NC(C)=O)CCCCNC(=O)C[C@@H](C(=O)N[C@@H](Cc2c[nH]cn2)C(=O)N[C@H](C(=O)N[C@@H](CCC(N)=O)C(=O)N[C@@H](CCCNC(=N)N)C(=O)N[C@H](C(=O)N[C@@H](Cc2c[nH]c3ccccc23)C(=O)NCC(N)=O)C(C)C)C2CCCCC2)NC(=O)[C@H](CC(=O)O)NC(=O)[C@H](CC(C)C)NC1=O
B4: SEQ ID NO: 431 (peptide)
peptide: W[NMeA]QKILDDH[Chg]QRVWG-NH2
modifications: lactam 4-8; not fully specified (N-terminus); printed as H17C8C(O)NH-W-NMeA-QK*ILDD*H-Chg-QRVWG-NH2
B5: SEQ ID NO: 449 (peptide)
peptide: WAQKILDEHGQRVWR
HELM: PEPTIDE1{[ac].W.[meA].Q.K.I.L.D.E.H.[O=C([C@@H](N[*:1])C1CCCCC1)[*:2]].Q.R.V.W.R.[am]}$PEPTIDE1,PEPTIDE1,5:R3-9:R3$$$V2.0
SMILES: CC[C@H](C)[C@@H]1NC(=O)[C@@H](NC(=O)[C@H](CCC(N)=O)NC(=O)[C@H](C)N(C)C(=O)[C@H](Cc2c[nH]c3ccccc23)NC(C)=O)CCCCNC(=O)CC[C@@H](C(=O)N[C@@H](Cc2c[nH]cn2)C(=O)N[C@H](C(=O)N[C@@H](CCC(N)=O)C(=O)N[C@@H](CCCNC(=N)N)C(=O)N[C@H](C(=O)N[C@@H](Cc2c[nH]c3ccccc23)C(=O)N[C@@H](CCCNC(=N)N)C(N)=O)C(C)C)C2CCCCC2)NC(=O)[C@H](CC(=O)O)NC(=O)[C@H](CC(C)C)NC1=O
B6: SEQ ID NO: 432 (peptide)
peptide: W[NMeA]QKILDDH[Chg]QRVWG-NH2
modifications: lactam 4-8; not fully specified (N-terminus); printed as H23C11C(O)NH-W-NMeA-QK*ILDD*H-Chg-QRVWG-NH2
B7: SEQ ID NO: 435 (peptide)
peptide: WAQKILNEHGQRVWG
HELM: PEPTIDE1{[ac].W.[meA].Q.K.I.L.N.E.H.[O=C([C@@H](N[*:1])C1CCCCC1)[*:2]].Q.R.V.W.G.[am]}$PEPTIDE1,PEPTIDE1,5:R3-9:R3$$$V2.0
SMILES: CC[C@H](C)[C@@H]1NC(=O)[C@@H](NC(=O)[C@H](CCC(N)=O)NC(=O)[C@H](C)N(C)C(=O)[C@H](Cc2c[nH]c3ccccc23)NC(C)=O)CCCCNC(=O)CC[C@@H](C(=O)N[C@@H](Cc2c[nH]cn2)C(=O)N[C@H](C(=O)N[C@@H](CCC(N)=O)C(=O)N[C@@H](CCCNC(=N)N)C(=O)N[C@H](C(=O)N[C@@H](Cc2c[nH]c3ccccc23)C(=O)NCC(N)=O)C(C)C)C2CCCCC2)NC(=O)[C@H](CC(N)=O)NC(=O)[C@H](CC(C)C)NC1=O
B8: SEQ ID NO: 402 (peptide)
peptide: WAQKILDEHVQRVWG
HELM: PEPTIDE1{[ac].W.[meA].Q.K.I.L.D.E.H.V.Q.R.V.W.G.[am]}$PEPTIDE1,PEPTIDE1,5:R3-9:R3$$$V2.0
SMILES: CC[C@H](C)[C@@H]1NC(=O)[C@@H](NC(=O)[C@H](CCC(N)=O)NC(=O)[C@H](C)N(C)C(=O)[C@H](Cc2c[nH]c3ccccc23)NC(C)=O)CCCCNC(=O)CC[C@@H](C(=O)N[C@@H](Cc2c[nH]cn2)C(=O)N[C@H](C(=O)N[C@@H](CCC(N)=O)C(=O)N[C@@H](CCCNC(=N)N)C(=O)N[C@H](C(=O)N[C@@H](Cc2c[nH]c3ccccc23)C(=O)NCC(N)=O)C(C)C)C(C)C)NC(=O)[C@H](CC(=O)O)NC(=O)[C@H](CC(C)C)NC1=O
B9: SEQ ID NO: 37 (peptide)
peptide: WWESILDEHVQRVWG
HELM: PEPTIDE1{[meW].[meW].E.S.I.L.D.E.H.V.Q.R.V.W.G.[am]}$$$$V2.0
SMILES: CC[C@H](C)[C@H](NC(=O)[C@H](CO)NC(=O)[C@H](CCC(=O)O)NC(=O)[C@H](Cc1c[nH]c2ccccc12)N(C)C(=O)[C@H](Cc1c[nH]c2ccccc12)NC)C(=O)N[C@@H](CC(C)C)C(=O)N[C@@H](CC(=O)O)C(=O)N[C@@H](CCC(=O)O)C(=O)N[C@@H](Cc1c[nH]cn1)C(=O)N[C@H](C(=O)N[C@@H](CCC(N)=O)C(=O)N[C@@H](CCCNC(=N)N)C(=O)N[C@H](C(=O)N[C@@H](Cc1c[nH]c2ccccc12)C(=O)NCC(N)=O)C(C)C)C(C)C
B10: SEQ ID NO: 38 (peptide)
peptide: H-W[NMeW]E[αMeS]ILDEH[αMeV]QRVWG-NH2

Several values for one entry are separate records, joined by “and”; a condition that tells them apart may be missing. Equal entries are not always repeated. Bridges are numbered along the chain shown (N, C = ends). Where no end group is shown, it is not given here. [ ]: non-standard residue; d: D form. NMeW = CN[C@@H](Cc1c[nH]c2ccccc12)C(=O)O; Chg = N[C@H](C(=O)O)C1CCCCC1; αMeV = CC(C)[C@](C)(N)C(=O)O; αMeS = C[C@](N)(CO)C(=O)O; NMeA = CN[C@@H](C)C(=O)O Bounds are passed on as bounds.

One test has as its target T1, β-catenin. The experiment in a line: cell-based or functional assay.
As for B1, the “Wnt Reporter EC50” value is more than 30 µM.

As for B2, the “Wnt Reporter EC50” value was more than 30 µM.

With B3, the “Wnt Reporter EC50” value was > 15 µM and ≤ 22.5 µM.

Turning to B4, the “Wnt Reporter EC50” value was not above 7.5 µM.

Take B5: the “Wnt Reporter EC50” value is more than 30 µM.

B6: the “Proliferation IC50, Endo cells” value amounted to 0.8 µM; the “Proliferation IC50, Wnt dependent cells” value was determined as 14.9 µM; the “Wnt Reporter EC50” value was > 7.5 µM and ≤ 15 µM.

As to B7, the “Wnt Reporter EC50” value was more than 30 µM.

As to B8, the “Wnt Reporter EC50” value was more than 30 µM.

Take B9: the “Wnt Reporter EC50” value was more than 30 µM.

In the case of B10, the “Wnt Reporter EC50” value is more than 30 µM.

In a further test the target is T1, β-catenin. The experiment in a line: competitive FP. A digest of the protocol: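 Competitive fluorescence polarization with inhibitor peptide serially diluted from 10 nM to 30 uM; polarization read at 470 nm excitation, 520 nm emission. Experiments performed three times.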
A word on the Kd: it is the constant that tells how readily two partners part at equilibrium. B1 came in with a Kd not above 0.4 µM.

In the case of B2, the Kd was > 0.4 µM and ≤ 1 µM.

Take B3: the Kd is not above 0.4 µM.

Take B4: the Kd is not above 0.4 µM.

For B5, the Kd was not above 0.4 µM.

For B6, the Kd is not above 0.4 µM.

Take B7: the equilibrium dissociation constant (Kd) was not above 0.4 µM.

B8 came in with an equilibrium dissociation constant (Kd) not above 0.4 µM.

The molecule B9 gave a Kd not above 0.4 µM.

Molecule B10 showed a Kd not above 0.4 µM.
